{"source": "patent US20260248947A1", "about": "“Methods of Treating Cancer Using Anti-HER2 Antibody-Drug Conjugates and HER2 Kinase Inhibitors” (Seagen Inc., priority 2023, published 2026)", "key": {"[1]": {"system": "PDO SG-634-395-2953 (HER2 low)", "test": "Patient-derived organoid cytotoxicity, caspase-3/7 fluorescence imaging", "format": "cell-based", "details": "DV 27-6,700 ng/mL, T-DXd 41-10,000 ng/mL", "experimental": "(§1) DV and T-DXd were also tested against a panel of PDOs: HER2 low SG-111-444-6273, HER2 low SG-634-395-2953, and HER2 moderate SG-553-819-8499. DV was titrated across a range of 27-6,700 ng/mL, while T-DXd was titrated across a range of 41-10,000 ng/mL. Drug and media was exchanged every four days. Analysis was conducted with fluorescence imaging: PDOs were identified from clusters of Hoechst positive cells, and caspase-3/7 was used for the identification of apoptotic cells. Mean caspase-3/7 intensity was measured per well and normalized to cell count."}, "[2]": {"system": "PDO SG-111-444-6273 (HER2 low)", "test": "Patient-derived organoid cytotoxicity, caspase-3/7 fluorescence imaging", "format": "cell-based", "details": "DV 27-6,700 ng/mL, T-DXd 41-10,000 ng/mL", "experimental": "as §1"}, "[3]": {"system": "PDO SG-553-819-8499 (HER2 moderate)", "test": "Patient-derived organoid cytotoxicity, caspase-3/7 fluorescence imaging", "format": "cell-based", "details": "DV 27-6,700 ng/mL, T-DXd 41-10,000 ng/mL", "experimental": "as §1"}, "[4]": {"system": "HER2-low breast cancer patient-derived xenograft (PDX) models CTG-1520 (IHC 0), CTG-0012 (IHC 1+), CTG-0670 (IHC 2+)", "test": "Tumor volume in HER2-low breast cancer PDX models", "format": "in vivo, Mice", "details": "single intravenous dose 0.3, 1, 2 or 5 mg/kg; in a subset of the models", "experimental": "First, the anti-tumor effect of DV as a monotherapy was tested in three PDX models with varying HER2 expression levels. Three breast cancer PDX models were used: CTG-1520 (IHC 0), CTG-0012 (IHC 1+), and CTG-0670 (IHC 2+). Mice (n=10/group) were treated with the indicated concentrations of DV (intravenous, single dose), and tumor volume was measured over time. […] Dashed lines represent carry-over of tumor volumes from individual animals that were removed from study when their tumors reached maximum allowable size (less than 3/10 animals per group).\nNext, DV and tucatinib were tested as monotherapies and in combination in the three PDX models. Mice (n=10/group) were treated with the indicated concentrations of tucatinib (50 mg/kg oral, twice daily), DV (1 or 2 mg/kg, intravenous, single dose), or a combination of tucatinib and DV, and tumor volume was measured over time. […] Dotted lines represent carry-over of tumor volumes from individual animals that were removed from study when their tumors reached maximum allowable size (less than 3/10 animals per group)."}}, "data": [{"substance": "disitamab vedotin [DV]", "values": [{"measurement": "single-agent cytotoxic activity as compared to T-DXd (caspase-3/7 intensity)", "setting": "[1]", "result": "more potent single-agent cytotoxic activity"}, {"measurement": "single-agent cytotoxic activity as compared to T-DXd (caspase-3/7 intensity)", "setting": "[2]", "result": "more potent single-agent cytotoxic activity"}, {"measurement": "single-agent cytotoxic activity as compared to T-DXd (caspase-3/7 intensity)", "setting": "[3]", "result": "more potent single-agent cytotoxic activity"}, {"measurement": "anti-tumor effects (tumor volume) of DV monotherapy", "setting": "[4]", "result": "anti-tumor effects in a dose-dependent manner"}]}]}
